US20230390406A1, “Star Polymer Drug Conjugates” (Vaccitech North America, Inc., priority 2020, published 2023)

Tests used:
[1] = small molecule, not polymer-bound; cited from earlier work
[2] = test system: Compound AK, Ac-A′SK(Ac)SB-AMC
[3] = test system: Compound AL, Ac-A′SKSB-AMC
[4] = test system: Compound AN, Ac-A′SPVnL-AMC
[5] = test system: Compound AI, Ac-A′SPVB-AMC
[6] = test system: Compound AO, Ac-A′SK(Ac)SnL-AMC
[7] = test system: Compound AP, Ac-A′SKSnL-AMC
[8] = test system: Compound AJ, Ac-A′SK(Ac)VB-AMC
[9] = test system: Compound AM, Ac-A′VnL-AMC
[10] = test system: Compound AH, Ac-A′VB-AMC

Molecule | pKa [1] | cleavage of the peptide-AMC bond (HPLC, UV 350 nm, up to 6 hrs) [2] | cleavage of the peptide-AMC bond (HPLC, UV 350 nm, up to 6 hrs) [3] | cleavage of the peptide-AMC bond (HPLC, UV 350 nm, up to 6 hrs) [4] | cleavage of the peptide-AMC bond (HPLC, UV 350 nm, up to 6 hrs) [5] | cleavage of the peptide-AMC bond (HPLC, UV 350 nm, up to 6 hrs) [6] | cleavage of the peptide-AMC bond (HPLC, UV 350 nm, up to 6 hrs) [7] | cleavage of the peptide-AMC bond (HPLC, UV 350 nm, up to 6 hrs) [8] | cleavage of the peptide-AMC bond (HPLC, UV 350 nm, up to 6 hrs) [9] | cleavage of the peptide-AMC bond (HPLC, UV 350 nm, up to 6 hrs) [10]
CC(C)(CCN)C(=O)O [DMBA, 4-amino-2,2-dimethylbutanoic acid] | about 4.8 |  |  |  |  |  |  |  |  | 
cathepsin B (Sino Biological, protein human recombinant) |  | showed significant stability in mouse plasma, but were readily cleaved in the presence of human cathepsin | showed significant stability in mouse plasma, but were readily cleaved in the presence of human cathepsin | found to be metabolized quickly in the presence of cathepsin B as well as mouse plasma | found to be metabolized quickly in the presence of cathepsin B as well as mouse plasma | showed significant stability in mouse plasma, but were readily cleaved in the presence of human cathepsin | showed significant stability in mouse plasma, but were readily cleaved in the presence of human cathepsin | Compound AJ was relatively stable in both matrices | found to be metabolized quickly in the presence of cathepsin B as well as mouse plasma | found to be metabolized quickly in the presence of cathepsin B as well as mouse plasma
